Results as given in patent US20230285589A1, “LIPOSOME COMPLEX FOR CANCER TREATMENT, COMPRISING NOVEL CD47 BINDER AND POLYNUCLEOTIDE” (priority 2020, published 2023).

Target: recombinant CD47 protein (Homo sapiens, UniProt Q08722)
Experiment: SPR, CD47 conjugated to CM5 chip
Settings: 250 RU CD47, 1:1 binding model
Description: Specifically, the recombinant CD47 protein was conjugated to the surface of the CM5 chip by a target SPR reaction of 250 RU through an EDC-NHS reaction to be used, and for HBS-P, the sensogram obtained through a process of association for 3 minutes and dissociation for 10 minutes at a flow rate of 30 μL/minutes was analyzed with the BiaEvaluation software using a 1:1 binding model and global fitting.

Chain of recombinant CD47 protein (Q08722 19-323): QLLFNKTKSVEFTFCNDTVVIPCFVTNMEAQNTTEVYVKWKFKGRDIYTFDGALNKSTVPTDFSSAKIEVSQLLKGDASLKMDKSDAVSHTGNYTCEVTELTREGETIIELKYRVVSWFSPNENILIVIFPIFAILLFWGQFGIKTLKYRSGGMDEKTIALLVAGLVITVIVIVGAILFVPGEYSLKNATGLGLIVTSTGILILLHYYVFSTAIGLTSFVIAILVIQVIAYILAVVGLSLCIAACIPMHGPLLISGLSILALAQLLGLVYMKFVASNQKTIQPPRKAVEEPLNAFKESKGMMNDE

## Sirpα: pure Sirpa (SEQ ID NO: 25), water-soluble domain of the original CD47 ligand
  ka: 610000 M⁻¹ s⁻¹
  kd: 0.37 s⁻¹
Listed as Sirpa(wt)
  Kd: 280 nM
